From patent publication US20250197490A1 (HBM ALPHA THERAPEUTICS, published 2025)
Several values for one entry are separate records, joined by “and”; a condition that tells them apart may be missing. Equal entries are not always repeated. Where two headings read alike, the source gives them in different places.

Legend:
[1] = molecular target: T1, biotinylated CRH (human and mouse, UniProt P01143 145-185 (rat entry), not fully specified; biotin; which end is not stated for the result (NT-biotin and CT-biotin forms were used)); assay: ELISA, CRH (NT biotin)
T1 construct: also called biotin-CRH; CRH (NT biotin)
T1 peptide: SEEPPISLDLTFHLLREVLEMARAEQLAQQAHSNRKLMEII

[2] = molecular target: T1, biotinylated CRH; assay: ELISA, CRH (CT biotin)
[3] = molecular target: T1, biotinylated CRH; assay: CRH ELISA, compared with PR006669
Procedure: (§1) Streptavidin (Thermo, Cat: 21125) was diluted in PBS to a concentration of 2 μg/ml. 100 μl of diluted streptavidin was added per well to ELISA microplates, and the plates were incubated overnight at 4° C. […] Subsequently, plates were washed and incubated with HRP-conjugated goat anti-human IgG (H+L) antibody (Jackson, Cat: 109-035-088) at 37° C. for 1 hour. 100 μL of 3,3′,5,5′-tetramethylbenzidine (TMB) substrate (Biopanda, Cat: TMB-S-003) was added, and the plates were incubated at room temperature for 15 minutes. 100 μL of ELISA stopping solution (Solarbio, Cat #: C1058) was added to terminate the reaction, and the optical density at 450 nm (OD450 nm) was determined by an ELISA plate reader (Molecular Devices, Spectra max 384 plus).

[4] = molecular target: T1, biotinylated CRH; assay: Octet in-tandem competition on captured CRH; row = 1st mAb; competitor (2nd mAb) PR302334
Procedure: (§2) SA sensors (Fortebio, Cat #18-5019) were hydrated in running buffer for 10 mins.

[5] = molecular target: T1, biotinylated CRH; assay: Octet in-tandem competition on captured CRH; row = 1st mAb; competitor (2nd mAb) PR301777
Procedure: as §2

[6] = molecular target: T1, biotinylated CRH; assay: Octet in-tandem competition on captured CRH; row = 1st mAb; competitor (2nd mAb) PR302309-8
Procedure: as §2

[7] = molecular target: T1, biotinylated CRH; assay: Octet in-tandem competition on captured CRH; row = 1st mAb; competitor (2nd mAb) PR005660
Procedure: as §2

[8] = molecular target: T1, biotinylated CRH; assay: Octet in-tandem competition on captured CRH; row = 1st mAb; competitor (2nd mAb) PR303394
Procedure: as §2

[9] = molecular target: T1, biotinylated CRH; assay: Octet in-tandem competition on captured CRH; row = 1st mAb; competitor (2nd mAb) PR302341-34
Procedure: as §2

[10] = molecular target: T1, biotinylated CRH; assay: Octet in-tandem competition on captured CRH; row = 1st mAb; competitor (2nd mAb) PR006669
Procedure: as §2

[11] = molecular target: T2, corticotropin-releasing hormone (CRH) peptide (human and mouse, UniProt P01143 145-185 (rat entry), not fully specified); assay: cell-based or functional assay
T2 peptide: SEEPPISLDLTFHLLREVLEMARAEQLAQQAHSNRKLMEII

[12] = molecular target: T1, biotinylated CRH; assay: Octet BLI, biotinylated CRH on SA sensors
[13] = molecular target: T3, CRH (Central Region, NT Biotin) (N-terminal Biotin-K; C-terminal NH2); assay: ELISA, CRH central region peptide (NT biotin)
T3 construct: also called Central CRH
T3 peptide: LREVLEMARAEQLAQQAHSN
Procedure: as §1

[14] = molecular target: T2, corticotropin-releasing hormone (CRH) …; assay: cell-based or functional assay
[15] = molecular target: T4, human UCN3 peptide, biotinylated (human, UniProt Q969E3 120-157, biotin at N- or C-terminus); assay: ELISA, hUCN3 (NT biotin) and (CT biotin)
T4 construct: also called hUCN3 (NT Biotin); hUCN3 (CT Biotin)
T4 peptide (looked up): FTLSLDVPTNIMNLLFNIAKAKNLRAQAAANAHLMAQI
Procedure: (§3) Streptavidin (Thermo, Cat: 21125) was diluted in PBS with a concentration of 2 μg/mL. 100 μL of diluted streptavidin was added per well to ELISA microplates, and the plates were incubated overnight at 4° C. Plates were blocked with ELISA blocking solution (containing 2% w/v BSA, 0.05% (v/v) Tween-20, pH 7.4 PBS buffer) at 37° C. for 1 hour, and then incubated with either 1 μg/mL hUCN1 (NT Biotin), hUCN1 (CT Biotin), hUCN2 (NT Biotin), hUCN2 (CT Biotin), hUCN3 (NT Biotin), or hUCN3 (CT Biotin) for 1 hour at 37° C. […] Plates were subsequently washed and incubated with HRP-conjugated goat anti-human IgG (H+L) antibody (Jackson, Cat: 109-035-088) at 37° C. for 1 hour. 100 μl of TMB Substrate (Biopanda, Cat: TMB-S-003) was added, and the plates were incubated at room temperature for 15 minutes. 100 μL of ELISA stopping solution (Solarbio, Cat #: C1058) was then added to terminate the reaction, and the OD450 nm was determined by an ELISA plate reader (Molecular Devices, Spectra max 384 plus).

[16] = molecular target: T5, N-Terminal CRH peptide (N-terminal region plus central region, CT biotin) (human and mouse, C-terminal K-Biotin); assay: ELISA, N-Ter-CRH (CT-biotin) on streptavidin
T5 construct: also called N-Ter-CRH
T5 peptide: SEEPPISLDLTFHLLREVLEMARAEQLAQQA
Procedure: as §1

[17] = molecular target: T6, CRH (Central Region, CT Biotin) (C-terminal K-Biotin); assay: ELISA, CRH central region peptide (CT biotin)
T6 construct: also called Central CRH
T6 peptide: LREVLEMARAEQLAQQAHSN
Procedure: as §1

[18] = molecular target: T7, human UCN2 peptide, biotinylated (human, UniProt Q96RP3 72-109, limits assumed, biotin at N- or C-terminus); assay: ELISA, hUCN2 (NT biotin) and (CT biotin)
T7 construct: also called hUCN2 (NT Biotin); hUCN2 (CT Biotin)
T7 peptide (looked up): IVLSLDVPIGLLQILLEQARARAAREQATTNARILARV
Procedure: as §3

[19] = molecular target: T1, biotinylated CRH; assay: ELISA, CRH (NT biotin)
Procedure: as §1

[20] = molecular target: T8, CRH (C-Terminal Region, NT Biotin) (N-terminal Biotin-K; C-terminal NH2); assay: ELISA, CRH C-terminal region peptide (NT biotin)
T8 construct: central region plus C-terminal region of CRH; also called C-Terminal CRH; C-Ter-CRH
T8 peptide: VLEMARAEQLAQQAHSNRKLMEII
Procedure: as §1

[21] = molecular target: T9, human UCN1 peptide, biotinylated (human, UniProt P55089 83-122, biotin at N- or C-terminus); assay: ELISA, hUCN1 (NT biotin)
T9 construct: also called hUCN1 (NT Biotin); hUCN1 (CT Biotin)
T9 peptide (looked up): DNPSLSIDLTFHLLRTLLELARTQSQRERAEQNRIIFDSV
Procedure: as §1

[22] = molecular target: T1, biotinylated CRH; assay: ELISA, CRH (CT biotin)
Procedure: as §1

B1: PR301306 (antibody, human IgG1, kappa, V domains shown)
VH: EVKLEESGGGLVQPGGSMKLSCVASGFTFSNYWMNWVRQSPEKGLEWVAEIRLKSNNYATLYAESVKGRFTISRDDSKSSVYLQMNNLRAEDTGIYYCTRGTLVYWGQGTLVTVSA
VL: DIVLTQSPASLAVSLGQRATISCRASQSVSTSDYNYMHWYQQKPGQPPKLLIKYASNLESGVPARFSGSGSGTDFTLNIHPVEEEDTATYYCQHSWEIPYTFGGGTKLEIKR
With B1 the “EC50 (read off the curve)” value [1] was ~0.1 nM and the “EC50 (read off the curve)” value [2] was ~0.04 nM.

B2: PR006745 (antibody, human IgG1, kappa, V domains shown)
VH: EVQLVESGGGLVQPGGSLRLSCAASGFTFSDNWMSWVRQAPGKGLEWVANIKQDASENYYVDSVKGRFTISRDNAKNSLYLQMNSLRAEDTAVYYCSRGLALWGWGQGTLVTVSS
VL: DIVMTHSPLSLPVTPGDPASISCRSSQSLLHSTGYNYLDWYLQKPGQSPQLLIYLGSNRASGVPDRFSGSGSGTDFTLKFIRVEAEDVGVYYCMQALQTPYTFGQGTKLEIKR
B2: binds [3].

B3: PR006746 (antibody, human IgG1, kappa, V domains shown)
VH: EVQLVESGGGLVQPGGSLRLSCAASGFTFSDNWMSWVRQAPGKGLEWVANIKQDSSENYYVDSVKGRFTISRDNAKNSLYLQMNSLRAEDTAVYYCSRGLALWGWGQGTLVTVSS
VL: DIVMTHSPLSLPVTPGDPASISCRSSQSLLHSTGYNYLDWYLQKPGQSPQLLIYLGSNRASGVPDRFSGSGSGTDFTLKFIRVEAEDVGVYYCMQALQTPYTFGQGTKLEIKR
B3: binds [3].

B4: PR302334 (antibody, human IgG1, kappa, V domains shown)
VH: EVKLVESGGGLVKPGGSLKLSCAASGFTFSTYAMSWVRQTPEKRLEWVASIRSGGTTYYPDSVKGRFTISRDNARNILYLQMSSLRSEDTAIYYCTRGIDWGQGTLVTVSA
VL: NIVMTQTPKFLLVSAGDRITITCKASQSVNNDVAWYQQKPGQSPKLLIYYASNRYTGVPDRFTGSGYGTDFTFTISTVQAEDLAVYFCQQDYSSWTFGGGTNLEIKR
B4 was tested, and the “% Inhibition” value [4] was 95%, the “% Inhibition” value [5] was 90% and the “% Inhibition” value [6] was 91%. The “% Inhibition” value [7] was 92%, the “% Inhibition” value [8] was 89% and the “% Inhibition” value [9] was 88%. The “% Inhibition” value [10] was 93% and the “hCRHR1-Luc 0.5 nM CRH IC50” value [11] was 0.26 nM and 0.644 nM.

B5: PR006143 (antibody, human IgG1, kappa, V domains shown)
VH: EVQLVESGGVLVQPGGSLRLSCAASGFTFSSYWMTWVRQAPGKGLEWVANIKQEGSEKYYVDSVKGRFTISRDNAKNSLFLQMNSLRAEDTAVYYCARTLIFDYWGQGTLVTVSS
VL: DIVMTQSPLSLPVTPGEPASISCRSSQSLLHSTGYHSLEWYLQKPGQSPQLLIYLGSNRASGVPDRFSGSGSGTDFTLKISRVEAEDVGIYYCMQTLQTPITFGQGTRLEIKR
B5: binds [12].

B6: PR006145 (antibody, human IgG1, kappa, V domains shown)
VH: EVQLVESGGVLVQPGGSLRLSCAASGFTFSSYWMTWVRQAPGKGLEWVANIKQEGSEKYYVDSVKGRFTISRDNAKNSLFLQMNSLRAEDTAVYYCARTLIFDYWGQGTLVTVSS
VL: DIVMTQSPLSLPVTPGEPASISCRSSQSLLHSTGYSSLEWYLQKPGQSPQLLIYLGSNRASGVPDRFSGSGSGTDFTLKISRVEAEDVGIYYCMQTLQTPITFGQGTRLEIKR
B6: binds [12].

B7: PR302309-8 (antibody, human IgG1, kappa, V domains shown)
VH: QIQLVQSGSELKKPGASVKVSCKASGYTFTNYGMNWVRQAPGQGLEWMGWINTYTGEPIYTDDFKGRFVFSLDTSVSTAYLQISSLKAEDTAVYYCSRSTMITTGGVFAYWGQGTLVTVSS
VL: DVVMTQSPLSLPVTLGQPASISCRSSQTIVHSDGNTYLEWYQQRPGQSPRLLIYKVSNRFSGVPDRFSGSGSGTDFTLKISRVEAEDLGVYYCFQGSHVPWTFGGGTKVEIKR
B7 was tested, and the binding result [13] was “no binding (tested: 100 nM)”, the “hCRHR1-Luc 0.5 nM CRH IC50” value [14] was 1.7 nM and the binding result [15] was “no binding (tested: 100 nM)”. The “% Inhibition” value [4] was 65%, the “% Inhibition” value [5] was 80% and the “% Inhibition” value [6] was 87%. The EC50 [16] was 0.025 nM, the binding result [17] was “no binding (tested: 100 nM)” and the binding result [18] was “no binding (tested: 100 nM)”. For the same binder, the “EC50 (read off the curve)” value [19] was ~0.03 nM, the “% Inhibition” value [7] was 76% and the “% Inhibition” value [8] was 77%. The “% Inhibition” value [9] was 74%, the binding result [20] was “no binding (tested: 100 nM)” and the “EC50 (read off the curve)” value [21] was ~0.1 nM. The “% Inhibition” value [10] was 76% and the “EC50 (read off the curve)” value [22] was ~0.03 nM.
